Reference: patent US20210115124A1 (Genentech, published 2021)
Changes are numbered by the printed parent chain. Names and notes keep the numbering of the source.

T1: human VEGF (hVEGF) (human, UniProt P15692 181-395)
T1 construct: also called VEGF-A
T1 sequence: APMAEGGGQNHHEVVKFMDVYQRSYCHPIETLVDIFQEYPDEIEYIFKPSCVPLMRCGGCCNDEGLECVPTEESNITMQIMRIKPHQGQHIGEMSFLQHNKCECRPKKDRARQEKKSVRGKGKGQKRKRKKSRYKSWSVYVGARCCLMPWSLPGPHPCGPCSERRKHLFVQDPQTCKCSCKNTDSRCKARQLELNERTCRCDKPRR

B1: G6.31 LC-N94Q (Fab, V domains shown)
VH: EVQLVESGGGLVQPGGSLRLSCAASGFTISDYWIHWVRQAPGKGLEWVAGITPAGGYTYYADSVKGRFTISADTSKNTAYLQMNSLRAEDTAVYYCARFVFFLPYAMDYWGQGTLVTVSS
VL: DIQMTQSPSSLSASVGDRVTITCRASQDVSTAVAWYQQKPGKAPKLLIYSASFLYSGVPSRFSGSGSGTDFTLTISSLQPEDFATYYCQQGYGQPFTFGQGTKVEIK
notes: Fab
B2: G6.31 LC-N94R (Fab, V domains shown)
VH: B1 VH
VL: B1 VL with Q94R
notes: Fab
B3: G6.31 HC-Y58Q (Fab, name in Kabat numbering, V domains shown)
VH: B1 VH with Y59Q
VL: B1 VL with Q94N
notes: Fab
B4: G6.31 LC-Q37A (Fab, V domains shown)
VH: B1 VH
VL: B1 VL with Q37A, Q94N
notes: Fab
B5: G6.31 HC-S70H (Fab, name in Kabat numbering, V domains shown)
VH: B1 VH with S71H
VL: B1 VL with Q94N
notes: Fab
B6: G6.31 LC-Q89N (Fab, V domains shown)
VH: B1 VH
VL: B1 VL with Q89N, Q94N
notes: Fab
B7: G6.31 HC-Y59T (Fab, name in Kabat numbering, V domains shown)
VH: B1 VH with Y60T
VL: B1 VL with Q94N
notes: Fab
B8: G6.31 HC-I51H (Fab, name in Kabat numbering, V domains shown)
VH: B1 VH with I51H
VL: B1 VL with Q94N
notes: Fab
B9: G6.31 LC-T97N (Fab, V domains shown)
VH: B1 VH
VL: B1 VL with Q94N, T97N
notes: Fab
B10: G6.31 HC-T73N (Fab, name in Kabat numbering, V domains shown)
VH: B1 VH with T74N
VL: B1 VL with Q94N
notes: Fab
B11: G6.31 HC-Q81W (Fab, name in Kabat numbering, V domains shown)
VH: B1 VH with Q82W
VL: B1 VL with Q94N
notes: Fab
B12: G6.31 HC-A60M (Fab, name in Kabat numbering, V domains shown)
VH: B1 VH with A61M
VL: B1 VL with Q94N
notes: Fab
B13: G6.31 HC-A40E, HC-T57E (Fab, V domains shown)
VH: B1 VH with A40E, T58E
VL: B1 VL with Q94N
notes: Fab
B14: G6.31 LC-F83A, LC-N94A, LC-T22D (Fab, name in Kabat numbering, V domains shown)
VH: B1 VH
VL: B1 VL with T22D, F83A, Q94A
notes: Fab
B15: G6.31 HC-A40E, HC-T57E, LC-F83A, LC-N94A, LC-T22D (Fab, name in Kabat numbering, V domains shown)
VH: B1 VH with A40E, T58E
VL: B1 VL with T22D, F83A, Q94A
notes: Fab
B16: R19HCLC5 (Fab, V domains shown)
VH: EEQLVEEGGGLVQPGESLRLSCAASGFEISDYWIHWVRQEPGEGLEWVAGITPAGGYEYYADSVEGRFTISADTSENTAYLQMNELRAEDTAVYYCARFVFFLPYAMDYWGQGELVTVSS
VL: B1 VL with F83A, Q94A
notes: Fab
B17: HCLC1 (Fab, V domains shown)
VH: B16 VH with R19E
VL: B1 VL with S9E, R18E, F83A, Q94A
notes: Fab
B18: HCLC5 (Fab, V domains shown)
VH: B16 VH with R19E
VL: B1 VL with F83A, Q94A
notes: Fab
B19: R19HCLC4 (Fab, V domains shown)
VH: B16 VH
VL: B1 VL with R18E, F83A, Q94A
notes: Fab
B20: R19HCLC2 (Fab, V domains shown)
VH: B16 VH
VL: B1 VL with R18E, K42E, S76E, F83A, Q94A
notes: Fab
B21: HCLC4 (Fab, V domains shown)
VH: B16 VH with R19E
VL: B1 VL with R18E, F83A, Q94A
notes: Fab
B22: HCLC2 (Fab, V domains shown)
VH: B16 VH with R19E
VL: B1 VL with R18E, K42E, S76E, F83A, Q94A
notes: Fab
B23: HCLC3 (Fab, V domains shown)
VH: B16 VH with R19E
VL: B1 VL with S9E, R18E, K42E, F83A, Q94A
notes: Fab
B24: HCcombo (Fab, V domains shown)
VH: B16 VH with R19E
VL: B1 VL with Q94N
notes: Fab
B25: LCcombo3 (G6.31 WT VH with LCcombo3 VL) (Fab, V domains shown)
VH: B1 VH
VL: B1 VL with S9E, R18E, K42E, F83A, Q94A
notes: Fab
B26: LCcombo2 (G6.31 WT VH with LCcombo2 VL) (Fab, V domains shown)
VH: B1 VH
VL: B1 VL with R18E, K42E, S76E, F83A, Q94A
notes: Fab
B27: LCcombo4 (G6.31 WT VH with LCcombo4 VL) (Fab, V domains shown)
VH: B1 VH
VL: B1 VL with R18E, F83A, Q94A
notes: Fab
B28: LCcombo1 (G6.31 WT VH with LCcombo1 VL) (Fab, V domains shown)
VH: B1 VH
VL: B1 VL with S9E, R18E, F83A, Q94A
notes: Fab
B29: G6.31 Y58R.N94A.F83A (Fab, name in Kabat numbering, V domains shown)
VH: B1 VH with Y59R
VL: B1 VL with F83A, Q94A
notes: Fab
B30: G6.31 LC-Y92E (Fab, V domains shown)
VH: B1 VH
VL: B1 VL with Y92E, Q94N
notes: Fab

What follows are binders tested against T1, human VEGF (hVEGF) (assay: SPR multiple-cycle).
From the text: (§1) To determine the binding affinity of selected Fab variants, SPR measurement with a BIACORE® T200 instrument was used. Briefly, series S sensor chip CM5 was activated with 1-ethyl-3-(3-dimethylaminopropyl) carbodiimide (EDC) and N-hydroxysuccinimide (NHS) reagents according to the supplier's instructions, and human VEGF (hVEGF) was coupled to achieve 50-80 response units (RU), then following by blocking un-reacted groups with 1M ethanolamine.
(§2) Three-fold serial dilutions of Fab in HBS-P buffer (0.01 M HEPES pH 7.4, 0.15 M NaCl, 0.005% surfactant P20) from low (0.02 nM) to high (50 nM) were injected (flow rate: 30 μl/min). The binding responses on hVEGF were corrected by subtracting of RU from a blank flow cell. The sensorgram was recorded and subject to reference and buffer subtraction before evaluating by BIACORE® T200 Evaluation Software (version 2.0). Association rates (kₒₙ) and dissociation rates (koff) were calculated using a simple one-to-one Langmuir binding model. The equilibrium dissociation constant (Kd) was calculated as the ratio koff/kₒₙ.
B1 showed a Kd of 1.14 nM, a koff of 0.000362 s⁻¹ and a kon of 318000 M⁻¹ s⁻¹.
B2 gave a Kd of 2.09 nM, a koff of 0.000407 s⁻¹ and a kon of 194000 M⁻¹ s⁻¹.

The binders below were run against T1, human VEGF (hVEGF) (assay: SPR single-cycle;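 on Fold change (relative to G6.31): fab variants injected over hVEGF immobilized on a CM5 chip (Biacore T200), threefold dilution series from 0.02 to 50 nM, kinetics fitted with a 1:1 Langmuir model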).
From the text: as §1, §2
For B3, the “Fold difference (relative to G6.31)” value was 1.5 fold, the Kd was 1.02 nM and the koff was 0.000358 s⁻¹. The kon was 352000 M⁻¹ s⁻¹.
For B1, the “Fold difference (relative to G6.31)” value was 0.3 fold, the Kd was 4.78 nM and the koff was 0.00133 s⁻¹. The kon was 278000 M⁻¹ s⁻¹.
For B4, the “Fold difference (relative to G6.31)” value was 1.8 fold, the Kd was 0.85 nM and the koff was 0.000515 s⁻¹. For the same binder, the kon was 603000 M⁻¹ s⁻¹.
For B5, the “Fold difference (relative to G6.31)” value was 1.5 fold, the Kd was 1 nM and the koff was 0.00066 s⁻¹. For the same binder, the kon was 658000 M⁻¹ s⁻¹.
For B6, the “Fold difference (relative to G6.31)” value was 3.5 fold, the Kd was 0.44 nM and the koff was 0.000435 s⁻¹. The kon was 991000 M⁻¹ s⁻¹.
In the case of B7, the “Fold difference (relative to G6.31)” value is reported as 0.6 fold, the Kd is reported as 2.71 nM and the koff is reported as 0.000974 s⁻¹. It also gave a kon of 360000 M⁻¹ s⁻¹.
For B8, the “Fold difference (relative to G6.31)” value was 2.5 fold, the Kd was 0.62 nM and the koff was 0.00152 s⁻¹. It also gave a kon of 2.48e+06 M⁻¹ s⁻¹.
B9 was tested, and the “Fold difference (relative to G6.31)” value was 0.8 fold, the Kd was 1.86 nM and the koff was 0.000802 s⁻¹. For the same binder, the kon was 432000 M⁻¹ s⁻¹.
With B10 the “Fold difference (relative to G6.31)” value was 1.8 fold, the Kd was 0.85 nM and the koff was 0.000575 s⁻¹. For the same binder, the kon was 678000 M⁻¹ s⁻¹.
With B11 the “Fold difference (relative to G6.31)” value was 3.4 fold, the Kd was 0.45 nM and the koff was 0.000542 s⁻¹. It also gave a kon of 1.2e+06 M⁻¹ s⁻¹.
B12 was tested, and the “Fold difference (relative to G6.31)” value was 0.8 fold, the Kd was 1.89 nM and the koff was 0.000729 s⁻¹. The kon was 386000 M⁻¹ s⁻¹.

These binders were tested against T1, human VEGF (hVEGF) (assay: SPR).
From the text: as §1, §2
For B13, the Kd was 0.272 nM, the koff was 0.000804 s⁻¹ and the kon was 2.96e+06 M⁻¹ s⁻¹.
B14 gave a Kd of 0.558 nM, a koff of 0.000744 s⁻¹ and a kon of 1.33e+06 M⁻¹ s⁻¹.
B15 was tested, and the Kd was 0.597 nM, the koff was 0.000718 s⁻¹ and the kon was 1.2e+06 M⁻¹ s⁻¹.

Target: T1, human VEGF (hVEGF)
Assay: SPR
Remark: another data set of the same source
From the text: as §1, §2
For B16, the Kd was 0.062 nM, the koff was 4.41e-05 s⁻¹ and the kon was 707000 M⁻¹ s⁻¹.
B17 showed a Kd of 0.442 nM, a koff of 0.000607 s⁻¹ and a kon of 1.37e+06 M⁻¹ s⁻¹.
B18 was tested, and the Kd was 0.316 nM, the koff was 0.000573 s⁻¹ and the kon was 1.81e+06 M⁻¹ s⁻¹.
Work on B19 yielded a Kd of 0.169 nM, a koff of 4.79e-05 s⁻¹ and a kon of 284000 M⁻¹ s⁻¹.
B20 gave a koff of 4.67e-05 s⁻¹ and a kon of 889000 M⁻¹ s⁻¹.
Work on B21 yielded a Kd of 0.299 nM, a koff of 0.000608 s⁻¹ and a kon of 2.03e+06 M⁻¹ s⁻¹.
With B22 the Kd was 0.293 nM, the koff was 0.000623 s⁻¹ and the kon was 2.12e+06 M⁻¹ s⁻¹.
B23 showed a Kd of 0.33 nM, a koff of 0.000608 s⁻¹ and a kon of 1.84e+06 M⁻¹ s⁻¹.
B24 was tested, and the Kd was 0.134 nM, the koff was 0.000274 s⁻¹ and the kon was 2.05e+06 M⁻¹ s⁻¹.

Target: T1, human VEGF (hVEGF)
Assay: SPR
Remark: another data set of the same source
From the text: as §1, §2
B16 was tested, and the Kd was 0.0624 nM, the koff was 4.41e-05 s⁻¹ and the kon was 707000 M⁻¹ s⁻¹.
In the case of B17, the Kd is reported as 0.442 nM, the koff is reported as 0.000607 s⁻¹ and the kon is reported as 1.37e+06 M⁻¹ s⁻¹.
Work on B18 yielded a Kd of 0.316 nM, a koff of 0.000573 s⁻¹ and a kon of 1.81e+06 M⁻¹ s⁻¹.
Binder B19 has a Kd of 0.169 nM, a koff of 4.79e-05 s⁻¹ and a kon of 284000 M⁻¹ s⁻¹.
Binder B20 has a koff of 4.67e-05 s⁻¹ and a kon of 889000 M⁻¹ s⁻¹.
In the case of B21, the Kd is reported as 0.299 nM, the koff is reported as 0.000608 s⁻¹ and the kon is reported as 2.03e+06 M⁻¹ s⁻¹.
With B22 the Kd was 0.293 nM, the koff was 0.000623 s⁻¹ and the kon was 2.12e+06 M⁻¹ s⁻¹.
B23 showed a Kd of 0.33 nM, a koff of 0.000608 s⁻¹ and a kon of 1.84e+06 M⁻¹ s⁻¹.
Binder B25 has a Kd of 1.34 nM, a koff of 0.000768 s⁻¹ and a kon of 574000 M⁻¹ s⁻¹.
In the case of B24, the Kd is reported as 0.134 nM, the koff is reported as 0.000274 s⁻¹ and the kon is reported as 2.05e+06 M⁻¹ s⁻¹.
For B26, the Kd was 1.11 nM, the koff was 0.000667 s⁻¹ and the kon was 599000 M⁻¹ s⁻¹.
Work on B27 yielded a Kd of 1.75 nM, a koff of 0.000808 s⁻¹ and a kon of 463000 M⁻¹ s⁻¹.
For B28, the Kd was 2.27 nM, the koff was 0.00101 s⁻¹ and the kon was 447000 M⁻¹ s⁻¹.

Target: T1, human VEGF (hVEGF)
Assay: SPR
Remark: another data set of the same source
From the text: as §1, §2
With B29 the “Fold improved (relative to WT)” value was 3.9 fold, the Kd was 0.135 nM and the koff was 0.000301 s⁻¹. The kon was 2.22e+06 M⁻¹ s⁻¹.

Target: T1, human VEGF (hVEGF)
Assay: SPR single-cycle
Remark: another data set of the same source
From the text: as §1, §2
With B30 the “Fold change (relative to G6.31)” value was 0.8 fold, the Kd was 2.07 nM and the koff was 0.00103 s⁻¹. The kon was 497000 M⁻¹ s⁻¹.
